Data on two molecules can be found in US12134635 (SONNET BIOTHERAPEUTICS, dated 2024).

Assay [1] addresses IL-18 binding protein (UniProt O95998). The assay can be described thus: Biacore T200 SPR, CM5 chip, IL-18BP as immobilized ligand, hIL-18 titrated, 25 C.
For assay [2], the target named is T1, IL-18 receptor (UniProt Q13478 19-541; O95256 20-599, limits assumed).
T1 sequence (looked up) 1: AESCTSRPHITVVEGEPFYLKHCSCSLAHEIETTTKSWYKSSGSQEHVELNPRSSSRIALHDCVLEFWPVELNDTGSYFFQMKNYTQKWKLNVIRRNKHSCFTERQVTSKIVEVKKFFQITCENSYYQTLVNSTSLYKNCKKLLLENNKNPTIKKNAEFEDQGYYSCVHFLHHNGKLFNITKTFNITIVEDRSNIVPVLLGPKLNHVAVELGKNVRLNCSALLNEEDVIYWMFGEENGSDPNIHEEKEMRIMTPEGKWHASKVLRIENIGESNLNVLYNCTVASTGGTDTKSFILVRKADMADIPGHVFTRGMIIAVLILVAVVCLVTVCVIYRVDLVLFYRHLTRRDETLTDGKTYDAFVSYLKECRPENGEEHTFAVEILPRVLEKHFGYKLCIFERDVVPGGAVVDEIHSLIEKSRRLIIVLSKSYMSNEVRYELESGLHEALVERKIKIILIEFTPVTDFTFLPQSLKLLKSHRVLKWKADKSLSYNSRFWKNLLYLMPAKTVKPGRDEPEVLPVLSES
T1 sequence (looked up) 2: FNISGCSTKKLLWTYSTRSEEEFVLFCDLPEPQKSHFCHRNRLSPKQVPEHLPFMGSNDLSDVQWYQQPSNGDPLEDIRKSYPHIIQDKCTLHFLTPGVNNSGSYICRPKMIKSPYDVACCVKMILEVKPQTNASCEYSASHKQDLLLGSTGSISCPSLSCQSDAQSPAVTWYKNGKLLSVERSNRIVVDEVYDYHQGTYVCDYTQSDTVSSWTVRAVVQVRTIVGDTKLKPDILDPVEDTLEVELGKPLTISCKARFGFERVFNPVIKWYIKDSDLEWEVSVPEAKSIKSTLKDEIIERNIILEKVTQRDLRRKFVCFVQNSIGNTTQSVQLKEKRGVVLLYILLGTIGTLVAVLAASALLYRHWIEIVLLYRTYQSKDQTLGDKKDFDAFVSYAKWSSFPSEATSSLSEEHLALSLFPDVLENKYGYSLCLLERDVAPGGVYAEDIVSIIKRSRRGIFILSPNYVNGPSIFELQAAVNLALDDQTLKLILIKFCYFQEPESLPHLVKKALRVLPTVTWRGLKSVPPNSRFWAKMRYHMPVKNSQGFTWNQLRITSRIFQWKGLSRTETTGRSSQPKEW
In words: cell-based or functional assay.

Molecule “Recombinant hIL-18 (NIBSC wildtype) (from UniProt Q14116 37-193) (ligand)” displayed a Kd in assay [1] of 0.056 nM.

B1: hIL-18 Variant A (ligand)
chain: WFGKLESKLSVIRNLNDQVLFIDQGNRPLFEDMTDSDSRDNAPRTIFIISYYKDSQPRGWAVTISVKSEKISTLSSENKIISFKEMNPPDNIKDTKSDIIFFQRSVPGHYNKMQFESSSYEGYFLASEKERDLFKLILKKEDELGDRSIMFTVQNED
For the molecule B1, the “EC50 (read off the curve), HEK-Blue IL-18 reporter, OD at 640 nM” value in assay [2] was ~0.03 ng/mL.

A word on the Kd: it is a measure of binding affinity in units of concentration.
